Consider one substance from article PMC5330840.

For the assay, the target named is Entamoeba histolytica ADP-forming acetyl-CoA synthetase, wild type (Entamoeba histolytica). Description: SEC. On the technique in general: In gel filtration, larger molecules generally elute earlier.

The term stoichiometry N denotes the number of molecules, sites or subunits per partner or assembly. Consider “Entamoeba histolytica ADP-forming acetyl-CoA synthetase, wild type (enzyme)”, for which the stoichiometry N was 2.
